Patent US20030129163A1

Biological target: KDR/Flk-1 antibody
Test: cell-based or functional assay

| Substance | # Blue Colonies (X-gal) on 5 x 10^5 KSY1 cells/well contacted with 1000 ng KDR/Flk-1 Ab, MOI = 4 (blue colonies) | # Blue Colonies (X-gal) on 5 x 10^5 KSY1 cells/well contacted with 5000 ng KDR/Flk-1 Ab, MOI = 4 (blue colonies) | # Blue Colonies (X-gal) on 1 x 10^5 KSY1 cells/well contacted with 1000 ng KDR/Flk-1 Ab, MOI = 10 (blue colonies) | # Blue Colonies (X-gal) on 1 x 10^5 KSY1 cells/well contacted with 5000 ng KDR/Flk-1 Ab, MOI = 10 (blue colonies) |
| --- | --- | --- | --- | --- |
| PABA.CAE retroviral vector (Protein A at BstEII and Avr + Wild Type CAE env) (from UniProt P38507 212-269) | 648 | 946 |  |  |
| PABN.CAE retroviral vector (Protein A at BstEII and Ngo + Wild Type CAE env) (from UniProt P38507 212-269) |  |  | 1560 | 2550 |
| wild-type CAE virions (Wild Type CAE env, amphotropic) |  | 66 |  | 20 |
